Biological target: the molecule itself
Assay: SEC

B1: pro-PanD (uncleaved L-aspartate-alpha-decarboxylase) of Salmonella enterica (enzyme, S. enterica serovar Typhimurium LT2, UniProt P65662 1-126, looked up)
chain: MIRTMLQGKLHRVKVTQADLHYEGSCAIDQDFLDASGILENEAIDIWNVTNGKRFSTYAIAAERGSRIISVNGAAAHCAEVGDIVIIASFVTMSDEEARTWRPKVAYFEGDNEMKRTAKAIPVQVA
  stoichiometry N: 4

— paper PMC3345047 (Molecular Microbiology, 2012)
